Reference: IntAct's records for PubMed 22252508

B1: Tumor protein 63 (Homo sapiens), Q9H3D4 (parent)
chain: MNFETSRCATLQYCPDPYIQRFVETPAHFSWKESYYRSTMSQSTQTNEFLSPEVFQHIWDFLEQPICSVQPIDLNFVDEPSEDGATNKIEISMDCIRMQDSDLSDPMWPQYTNLGLLNSMDQQIQNGSSSTSPYNTDHAQNSVTAPSPYAQPSSTFDALSPSPAIPSNTDYPGPHSFDVSFQQSSTAKSATWTYSTELKKLYCQIAKTCPIQIKVMTPPPQGAVIRAMPVYKKAEHVTEVVKRCPNHELSREFNEGQIAPPSHLIRVEGNSHAQYVEDPITGRQSVLVPYEPPQVGTEFTTVLYNFMCNSSCVGGMNRRPILIIVTLETRDGQVLGRRCFEARICACPGRDRKADEDSIRKQQVSDSTKNGDGTKRPFRQNTHGIQMTSIKKRRSPDDELLYLPVRGRETYEMLLKIKESLELMQYLPQHTIETYRQQQQQQHQHLLQKQTSIQSPSSYGNSSPPLNKMNSMNKLPSVSQLINPQQRNALTPTTIPDGMGANIPMMGTHMPMAGDMNGLSPTQALPPPLSMPSTSHCTPPPPYPTDCSIVSFLARLGCSSCLDYFTTQGLTTIYQIEHYSMDDLASLKIPEQFRHAIWKGILDHRQLHEFSSPSHLLRTPSSASTVSVGSSETRGERVIDAVRFTLRQTISFPPRDEWNDFNFDMDARRNKQQRIKEEGE
partner: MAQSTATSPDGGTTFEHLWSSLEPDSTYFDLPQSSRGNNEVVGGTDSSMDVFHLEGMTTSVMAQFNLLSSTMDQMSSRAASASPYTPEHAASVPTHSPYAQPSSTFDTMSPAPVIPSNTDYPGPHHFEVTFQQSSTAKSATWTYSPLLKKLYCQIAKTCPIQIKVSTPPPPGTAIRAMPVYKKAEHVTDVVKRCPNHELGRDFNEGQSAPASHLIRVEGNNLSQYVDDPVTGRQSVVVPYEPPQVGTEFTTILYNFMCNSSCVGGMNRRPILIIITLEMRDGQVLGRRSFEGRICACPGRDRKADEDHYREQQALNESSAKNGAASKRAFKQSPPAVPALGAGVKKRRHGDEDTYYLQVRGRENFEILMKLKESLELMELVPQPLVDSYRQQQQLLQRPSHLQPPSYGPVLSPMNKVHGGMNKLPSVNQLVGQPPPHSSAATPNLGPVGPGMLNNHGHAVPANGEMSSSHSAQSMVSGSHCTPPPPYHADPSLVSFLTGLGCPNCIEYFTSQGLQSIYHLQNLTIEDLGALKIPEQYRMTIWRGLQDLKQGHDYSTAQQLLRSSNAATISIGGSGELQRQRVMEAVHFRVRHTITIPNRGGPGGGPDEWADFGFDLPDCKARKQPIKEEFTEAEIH
B2: Actin nucleation-promoting factor WAS (Homo sapiens), P42768 (parent)
chain: MSGGPMGGRPGGRGAPAVQQNIPSTLLQDHENQRLFEMLGRKCLTLATAVVQLYLALPPGAEHWTKEHCGAVCFVKDNPQKSYFIRLYGLQAGRLLWEQELYSQLVYSTPTPFFHTFAGDDCQAGLNFADEDEAQAFRALVQEKIQKRNQRQSGDRRQLPPPPTPANEERRGGLPPLPLHPGGDQGGPPVGPLSLGLATVDIQNPDITSSRYRGLPAPGPSPADKKRSGKKKISKADIGAPSGFKHVSHVGWDPQNGFDVNNLDPDLRSLFSRAGISEAQLTDAETSKLIYDFIEDQGGLEAVRQEMRRQEPLPPPPPPSRGGNQLPRPPIVGGNKGRSGPLPPVPLGIAPPPPTPRGPPPPGRGGPPPPPPPATGRSGPLPPPPPGAGGPPMPPPPPPPPPPPSSGNGPAPPPLPPALVPAGGLAPGGGRGALLDQIRQGIQLNKTPGAPESSALQPPPQSSEGLVGALMHVMQKRSRAIHSSDEGEDQAGDEDEDDEWDD
B3: DNA mismatch repair protein Mlh1 (Homo sapiens), P40692 (parent)
chain: MSFVAGVIRRLDETVVNRIAAGEVIQRPANAIKEMIENCLDAKSTSIQVIVKEGGLKLIQIQDNGTGIRKEDLDIVCERFTTSKLQSFEDLASISTYGFRGEALASISHVAHVTITTKTADGKCAYRASYSDGKLKAPPKPCAGNQGTQITVEDLFYNIATRRKALKNPSEEYGKILEVVGRYSVHNAGISFSVKKQGETVADVRTLPNASTVDNIRSIFGNAVSRELIEIGCEDKTLAFKMNGYISNANYSVKKCIFLLFINHRLVESTSLRKAIETVYAAYLPKNTHPFLYLSLEISPQNVDVNVHPTKHEVHFLHEESILERVQQHIESKLLGSNSSRMYFTQTLLPGLAGPSGEMVKSTTSLTSSSTSGSSDKVYAHQMVRTDSREQKLDAFLQPLSKPLSSQPQAIVTEDKTDISSGRARQQDEEMLELPAPAEVAAKNQSLEGDTTKGTSEMSEKRGPTSSNPRKRHREDSDVEMVEDDSRKEMTAACTPRRRIINLTSVLSLQEEINEQGHEVLREMLHNHSFVGCVNPQWALAQHQTKLYLLNTTKLSEELFYQILIYDFANFGVLRLSEPAPLFDLAMLALDSPESGWTEEDGPKEGLAEYIVEFLKKKAEMLADYFSLEIDEEGNLIGLPLLIDNYVPPLEGLPIFILRLATEVNWDEEKECFESLSKECAMFYSIRKQYISEESTLSGQQSEVPGSIPNSWKWTVEHIVYKALRSHILPPKHFTEDGNILQLANLPDLYKVFERC
partner: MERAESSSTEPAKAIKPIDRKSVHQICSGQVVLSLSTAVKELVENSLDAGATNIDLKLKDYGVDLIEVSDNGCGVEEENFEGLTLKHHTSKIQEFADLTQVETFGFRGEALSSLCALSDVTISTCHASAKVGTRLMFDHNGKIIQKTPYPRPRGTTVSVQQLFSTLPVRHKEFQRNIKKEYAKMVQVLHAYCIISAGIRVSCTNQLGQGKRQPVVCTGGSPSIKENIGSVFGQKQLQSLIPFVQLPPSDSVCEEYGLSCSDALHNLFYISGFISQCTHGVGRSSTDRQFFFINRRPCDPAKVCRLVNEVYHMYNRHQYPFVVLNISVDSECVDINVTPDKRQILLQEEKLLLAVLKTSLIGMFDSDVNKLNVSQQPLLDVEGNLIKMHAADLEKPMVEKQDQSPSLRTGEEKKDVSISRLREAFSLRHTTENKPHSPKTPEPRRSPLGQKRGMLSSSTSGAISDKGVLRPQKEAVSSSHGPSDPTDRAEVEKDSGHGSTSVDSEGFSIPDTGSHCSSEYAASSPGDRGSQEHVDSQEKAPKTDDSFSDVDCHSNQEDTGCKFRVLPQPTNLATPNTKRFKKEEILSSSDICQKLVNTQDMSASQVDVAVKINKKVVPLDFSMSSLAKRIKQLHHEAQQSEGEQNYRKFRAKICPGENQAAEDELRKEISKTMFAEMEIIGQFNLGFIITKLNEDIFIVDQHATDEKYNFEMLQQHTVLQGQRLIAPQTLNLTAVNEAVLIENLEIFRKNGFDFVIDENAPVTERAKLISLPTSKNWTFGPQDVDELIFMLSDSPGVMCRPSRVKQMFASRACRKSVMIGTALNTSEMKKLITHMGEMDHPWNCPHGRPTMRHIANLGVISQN

Variants of: B1
Settings: with p73_human TP73, O15350

| effect of a mutation on the interaction | Variant |
| --- | --- |
| decreasing interaction strength | R594P |
| decreasing interaction strength | I549T |
| decreasing interaction strength | S580P |
| decreasing interaction strength | F565L |

Variants of: B2
Settings: with cdc42_human CDC42, P60953
cdc42_human CDC42, P60953, sequence (P60953 whole entry, looked up): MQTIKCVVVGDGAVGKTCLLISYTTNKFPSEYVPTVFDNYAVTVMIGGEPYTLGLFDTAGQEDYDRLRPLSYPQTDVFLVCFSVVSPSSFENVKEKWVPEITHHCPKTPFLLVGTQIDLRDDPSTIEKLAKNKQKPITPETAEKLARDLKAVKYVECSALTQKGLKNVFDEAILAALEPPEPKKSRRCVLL

| effect of a mutation on the interaction | Variant |
| --- | --- |
| with no effect | R41G |
| decreasing interaction strength | I294T |
| with no effect | E131K |

Variants of: B3
Settings: with pms2_human PMS2, P54278

| effect of a mutation on the interaction | Variant |
| --- | --- |
| with no effect | Q149H |
| with no effect | H381Y |
| disrupting interaction strength | I107R |
| with no effect | N338S |
| with no effect | L259S |
| disrupting interaction strength | Y293D |
| disrupting interaction strength | I68N |
